# Assay results reported in patent publication US20120316071A1 (published 2012).
# T1: rHuman Erythropoietin R/Fc Chimera, CF (R&D Systems Cat#963-ER) (human, UniProt P19235 25-250)
# T1 construct: Bought from R&D Systems; also called EPO R/Fc; Epo R/Fc chimera; not shown: Fc of the bought chimera
# T1 sequence (looked up): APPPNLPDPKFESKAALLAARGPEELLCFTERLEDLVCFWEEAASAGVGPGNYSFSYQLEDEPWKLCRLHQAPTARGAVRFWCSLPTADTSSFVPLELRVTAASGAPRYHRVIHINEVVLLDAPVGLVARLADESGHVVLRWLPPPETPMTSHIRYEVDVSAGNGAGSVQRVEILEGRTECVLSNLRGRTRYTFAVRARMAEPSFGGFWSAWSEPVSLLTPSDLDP
# T2: rHuman Erythropoietin R/Fc Chimera, CF (R&D Systems Cat#963-ER) (human, UniProt P19235 25-250)
# T2 construct: Bought recombinant protein; also called EPO R/Fc; Epo R; Fc part of the bought chimera not given
# T2 sequence (looked up): T1 sequence (looked up)
# B1: Fab VH1-46_IGHD3-10*01_IGHJ4*01 & B3_IGKJ1*01 (Fab, V domains shown)
# VH: QVQLVQSGAEVKKPGASVKVSCKASGYTFTSYYMHWVRQAPGQGLEWMGIINPSGGSTSYAQKFQGRVTMTRDTSTSTVYMELSSLRSEDTAVYYCAREYYYGSGSYYNDYFDYWGQGTLVTVSS
# VL: not shown
# notes: Tested as a Fab made in E. coli; VH was cloned into Plasmid A (CH1 constant region, His6 and Flag tags); The kappa VL was cloned into Plasmid C (kappa CL)
# B2: Fab VH1-46_IGHD6-13*01_IGHJ4*01 & B3_IGKJ1*01 (Fab, V domains shown)
# VH: QVQLVQSGAEVKKPGASVKVSCKASGYTFTSYYMHWVRQAPGQGLEWMGIINPSGGSTSYAQKFQGRVTMTRDTSTSTVYMELSSLRSEDTAVYYCAREGYSSSWYDYFDYWGQGTLVTVSS
# VL: not shown
# notes: Germline Fab made in E. coli; VH was cloned into Plasmid A (CH1, His6 and Flag tags) and the kappa VL into Plasmid C (kappa CL)
# B3: Fab VH1-46_IGHD3-10*01_IGHJ4*01 & O1_IGKJ1*01 (Fab, V domains shown)
# VH: B1 VH
# VL: DIVMTQTPLSLPVTPGEPASISCRSSQSLLDSDDGNTYLDWYLQKPGQSPQLLIYTLSYRASGVPDRFSGSGSGTDFTLKISRVEAEDVGVYYCMQRIEFPSWTFGQGTKVEIKR
# notes: Germline library Fab expressed in E. coli; VH was cloned into Plasmid A (CH1 constant region, His6 and Flag tags); The kappa VL was cloned into Plasmid C (kappa CL)
# Key:
# [1] = target: T3, Recombinant Human DLL4 (R&D Systems Cat#1506-D4/CF) (human, UniProt Q9NR61 27-524); test: MSD multispot ECL, antigen spotted on plate, Fab 11 nM; blank spot 212
# T3 construct: Bought from R&D Systems; also called rHuman DLL4; delta-like protein 4
# [2] = target: T4, rHuman ErbB2/Fc Chimera, CF (R&D Systems Cat#1129-ER) (human, UniProt P04626 23-652); test: as above
# T4 construct: Bought from R&D Systems; also called human epidermal growth factor 2 receptor (ErbB2); not shown: Fc of the bought chimera
# [3] = target: T5, rHuman EGF R/Fc Chimera, CF (R&D Systems Cat#344-ER) (human, UniProt P00533 25-645); test: as above
# T5 construct: Bought from R&D Systems; also called epidermal growth factor receptor (EGF R); not shown: Fc of the bought chimera
# [4] = target: T6, rHuman HGF R/c-MET/Fc Chimera, CF (R&D Systems Cat#358-MT/CF) (human, UniProt P08581 25-932); test: as above
# T6 construct: Bought from R&D Systems; also called HGF R/Fc; hepatocyte growth factor receptor (HGF R/c-Met); not shown: Fc of the bought chimera
# [5] = target: T7, rHuman Notch-1/Fc Chimera, CF (R&D Systems Cat#3647-TK) (human, UniProt P46531 19-526); test: as above
# T7 construct: Bought from R&D Systems; not shown: Fc of the bought chimera
# [6] = target: T8, rHuman CD44/Fc Chimera, CF (R&D Systems Cat#3660-CD) (human, UniProt P16070 21-220); test: as above
# T8 construct: Bought from R&D Systems; not shown: Fc of the bought chimera
# [7] = target: T9, rHuman IGF-1 sR, (IGF-1 sR), CF (R&D Systems Cat#391-GR) (human, UniProt P08069 31-932); test: as above
# T9 construct: Bought from R&D Systems and called a soluble receptor; also called insulin-like growth factor-1 soluble receptor
# [8] = target: T10, rHuman P-Cadherin/Fc Chimera, CF (R&D Systems Cat#861-PC) (human, UniProt P22223 108-654); test: as above
# T10 construct: Bought from R&D Systems; not shown: Fc of the bought chimera
# [9] = target: T1, rHuman Erythropoietin R/Fc Chimera, CF …; test: as above
# [10] = target: T11, Recombinant Human DLL4 (R&D Systems Cat#1506-D4/CF) (human, UniProt Q9NR61 27-524); test: Multispot ECL (MSD), antigen spotted on plate, Fab 250 nM; blank spot 590
# T11 construct: Bought recombinant protein; also called rHuman DLL4; delta-like protein 4
# [11] = target: T2, rHuman Erythropoietin R/Fc Chimera, CF …; test: as above
# [12] = target: T12, Recombinant Human DLL4 (R&D Systems Cat#1506-D4/CF) (human, UniProt Q9NR61 27-524); test: Multispot ECL (MSD) titration; antigen spotted on plate; Fab 1570 nM; blank spot 866
# T12 construct: Bought recombinant protein; also called delta-like protein 4; rHuman DLL4
# [13] = target: T13, rHuman ErbB2/Fc Chimera, CF (R&D Systems Cat#1129-ER) (human, UniProt P04626 23-652); test: as above
# T13 construct: Bought Fc chimera; also called human epidermal growth factor 2 receptor; Fc part of the bought chimera not given
# [14] = target: T14, rHuman HGF R/c-MET/Fc Chimera, CF (R&D Systems Cat#358-MT/CF) (human, UniProt P08581 25-932); test: as above
# T14 construct: Bought Fc chimera; also called HGF R/Fc; hepatocyte growth factor receptor; Fc part of the bought chimera not given
# [15] = target: T15, rHuman Notch-1/Fc Chimera, CF (R&D Systems Cat#3647-TK) (human, UniProt P46531 19-526); test: as above
# T15 construct: Bought Fc chimera; Fc part of the bought chimera not given
# [16] = target: T16, rHuman CD44/Fc Chimera, CF (R&D Systems Cat#3660-CD) (human, UniProt P16070 21-220); test: as above
# T16 construct: Bought Fc chimera; Fc part of the bought chimera not given
# [17] = target: T17, rHuman IGF-1 sR (IGF-1 sR), CF (R&D Systems Cat#391-GR) (human, UniProt P08069 31-932); test: as above
# T17 construct: Bought soluble receptor; also called insulin-like growth factor-1 soluble receptor
# [18] = target: T18, rHuman P-Cadherin/Fc Chimera, CF (R&D Systems Cat#861-PC) (human, UniProt P22223 108-654); test: as above
# T18 construct: Bought Fc chimera; Fc part of the bought chimera not given
binder,measurement,setting,value
B1,ECL signal,[1],254
same,ECL signal,[2],216
same,ECL signal,[3],201
same,ECL signal,[4],268
same,ECL signal,[5],404
same,ECL signal,[6],296
same,ECL signal,[7],289
same,ECL signal,[8],270
same,ECL signal,[9],1820
B2,ECL signal,[10],1560
same,ECL signal,[11],8540
B3,ECL signal,[12],2700
same,ECL signal,[13],1260
same,ECL signal,[14],1640
same,ECL signal,[15],1640
same,ECL signal,[16],1380
same,ECL signal,[17],1430
same,ECL signal,[18],1790
